{
  "source": "patent US20080255035A1",
  "about": "“SPARC AND METHODS OF USE THEREOF” (Abraxis BioScience, Inc., priority 2007, published 2008)",
  "molecules": {"B1": {"name": "BIO1: wild type SPARC polypeptide (SEQ ID NO: 1) (protein, listed as Homo sapiens)", "chain": "APQQEALPDETEVVEETVAEVTEVSVGANPVQVEVGEFDDGAEETEEEVVAENPCQNHHCKHGKVCELDENNTPMCVCQDPTSCPAPIGEFEKVCSNDNKTFDSSCHFFATKCTLEGTKKGHKLHLDYIGPCKYIPPCLDSELTEFPLRMRDWLKNVLVTLYERDEDNNLLTEKQKLRVKKIHENEKRLEAGDHPVELLARDFEKNYNMYIFPVHWQFGQLDQHPIDGYLSHTELAPLRAPLIPMEHCTTRFFETCDLDNDKYIALDEWAGCFGIKQKDIDKDLVI"}, "B2": {"name": "SPARC: Secreted Protein, Acidic, Rich in Cysteines, also known as osteonectin; wild type or Q3 not told apart at the place (protein)", "chain": "APQQEALPDETEVVEETVAEVTEVSVGANPVQVEVGEFDDGAEETEEEVVAENPCQNHHCKHGKVCELDENNTPMCVCQDPTSCPAPIGEFEKVCSNDNKTFDSSCHFFATKCTLEGTKKGHKLHLDYIGPCKYIPPCLDSELTEFPLRMRDWLKNVLVTLYERDEDNNLLTEKQKLRVKKIHENEKRLEAGDHPVELLARDFEKNYNMYIFPVHWQFGQLDQHPIDGYLSHTELAPLRAPLIPMEHCTTRFFETCDLDNDKYIALDEWAGCFGIKQKDIDKDLVI"}, "B3": {"name": "BIO2: Q3 mutant SPARC (SEQ ID NO: 3), deletion of the third glutamine in mature human SPARC (protein, listed as Homo sapiens)", "chain": "APQEALPDETEVVEETVAEVTEVSVGANPVQVEVGEFDDGAEETEEEVVAENPCQNHHCKHGKVCELDENNTPMCVCQDPTSCPAPIGEFEKVCSNDNKTFDSSCHFFATKCTLEGTKKGHKLHLDYIGPCKYIPPCLDSELTEFPLRMRDWLKNVLVTLYERDEDNNLLTEKQKLRVKKIHENEKRLEAGDHPVELLARDFEKNYNMYIFPVHWQFGQLDQHPIDGYLSHTELAPLRAPLIPMEHCTTRFFETCDLDNDKYIALDEWAGCFGIKQKDIDKDLVI"}},
  "key": {"[1]": {"test_system": "HUVEC", "assay": "Transport of paclitaxel across EC monolayers on transwell (HUVEC)", "assay_type": "cell-based, human", "details": "cell type not specified", "experimental": "A series of experiments were performed to evaluate binding and transport of paclitaxel by human umbilical vein endothelial cells (HUVEC) and human lung microvessel endothelial cells (HLMVEC) for ABX and TAX. Fluorescent paclitaxel (FP) was used as a probe and fluorescent ABX and TAX were formulated with FP to probe the binding and transport of paclitaxel across EC monolayers grown on a transwell apparatus."}, "[2]": {"test_system": "HT29 colon cancer xenograft", "assay": "s.c. human HT29 colon cancer xenograft model, 5-FU with BIO1", "assay_type": "in vivo, nude mice", "experimental": "To further explore the chemotherapy sensitizing activity of SPARC, the athymic mouse tumor xenograft system was used to assess the sensitization of HT 29 human colocancer cells to 5-flurouracil (“5-FU”).\nThe cancer cells were implanted subcutaneously bilaterally in athymic mice. The mice were treated with saline or 25 mg/kg of 5-FU (see Table 4). Those animals that received SPARC were treated with wild type polypeptide (SEQ ID NO:1) at a dose of 4 mg/kg, 6 mg/kg or 8 mg/kg (see Table 4). The animals were monitored for survival and xenograft growth as measures of efficacy and body weight change as a measure of toxicity."}, "[3]": {"test_system": "Breast Cancer (MDA-MB-231)", "assay": "Breast cancer xenograft, SPARC / Avastin / Abraxane", "assay_type": "in vivo, athymic nude mice", "details": "for tumor growth, addition to Abraxane compared to the other arms: breast cancer cells", "experimental": "(§1) Human breast cancer (FIGS. 7 and 8) and colon cancer cells (FIGS. 9 and 10) were grown in athymic nude mice as xenografts as in EXAMPLES 12 and 13. There were 5 mice in each treatment group. Tumors were treated when they reached 200 mm^3. […] Both wild type (“BIO1”) and Q3 mutant SPARC (“BIO2”) were evaluated. The animals were monitored for survival and xenograft growth as measures of efficacy and body weight change as a measure of toxicity."}, "[4]": {"test_system": "Colon Cancer (HT29)", "assay": "Colon cancer xenograft, SPARC / Avastin / Abraxane", "assay_type": "in vivo, athymic nude mice", "details": "for tumor growth, single agent therapy versus saline control / tumor growth, addition to Abraxane compared to Abraxane alone: colon cancer cells", "experimental": "as §1"}, "[5]": {"test_system": "HUVEC", "assay": "In vitro angiogenesis assay (TSC CellWorks Angiokit)", "assay_type": "cell-based, human", "details": "12 days in culture", "experimental": "In this system, human umbilical vein endothelial cells (“HUVEC”) are co-cultured with other human cells (fibroblast) in collagen matrix. HUVEC cells initially form small islands within the culture matrix. HUVEC differentiate, proliferate and enter migratory phase during which they move through the matrix and form threadlike tubule structures (9-11 days). These gradually join up and form a network which resemble the capillary bed.\nHUVEC cells grown in a three dimensional matrix were treated with various concentration of wild type SPARC polypeptide (SEQ ID NO: 1) or the Q3 mutant SPARC polypeptide (SEQ ID NO: 3). Capillary microtubules were visualized using immunostaining for CD31 after 12 days in culture. FIG. 6 depicts SPARC's concentration dependent effect on neoangiogensis showing characteristic examples of the capillary microtubular density in the absence of SPARC (0 μg/ml), wild type or Q3 SPARC at 10 μg/ml, and wild type or Q3 SPARC at 100 μg/ml."}},
  "data": [
    {"molecule": "beta-methyl cyclodextrin [BMC]", "values": [
      {"measurement": "effect on transport of paclitaxel from ABX across endothelial monolayers", "setting": "[1]", "result": "inhibited"}
    ]},
    {"molecule": "CCN1C(=O)C=CC1=O", "note": "[NEM]", "values": [
      {"measurement": "effect on transport of paclitaxel from ABX across endothelial monolayers", "setting": "[1]", "result": "inhibited"}
    ]},
    {"molecule": "O=c1[nH]cc(F)c(=O)[nH]1", "note": "[5-FU, 5-flurouracil]", "values": [
      {"measurement": "% BWLmax", "setting": "[2]; 5-FU 25 mg/kg IP", "result": "−5.8", "unit": "%"},
      {"measurement": "TGI (%)", "setting": "[2]; 5-FU 25 mg/kg IP, post-treatment day 25", "result": 79.8, "unit": "%"}
    ]},
    {"molecule": "Avastin: angiogenesis inhibitor [reference compound]", "values": [
      {"measurement": "Tumor growth inhibition (TGI) relative to Abraxane alone", "setting": "[3]; MDA-MB-231, SPARC 150 μg/kg 2×/week, Avastin 4 mg/kg twice per week, Abraxane 15 mg/kg every fourth day ×3", "result": 16, "unit": "%"},
      {"measurement": "Tumor growth inhibition (TGI) relative to Abraxane alone", "setting": "[4]; HT29, SPARC 150 μg/kg 2×/week, Avastin 4 mg/kg twice per week, Abraxane 15 mg/kg every fourth day ×3", "result": "<0", "unit": "%"},
      {"measurement": "tumor growth, single agent therapy versus saline control", "setting": "[4]", "result": "no better than the saline control treatments"}
    ]},
    {"molecule": "B1", "values": [
      {"measurement": "sensitization of the cancer cells to 5-FU", "setting": "[2]; any of the SPARC concentrations used (4, 6, 8 mg/kg)", "result": "failed to sensitize"}
    ]},
    {"molecule": "B2", "values": [
      {"measurement": "angiogenic activity (capillary microtubule density, CD31)", "setting": "[5]; 10 μg/ml", "result": "proangiogenic"},
      {"measurement": "angiogenic activity (capillary microtubule density, CD31)", "setting": "[5]; 100 μg/ml", "result": "inhibits angiogenesis"},
      {"measurement": "tumor growth, addition to Abraxane compared to the other arms", "setting": "[3]", "result": "marked decreases in tumor growth"},
      {"measurement": "tumor growth, addition to Abraxane compared to Abraxane alone", "setting": "[4]", "result": "further decreases in tumor growth"},
      {"measurement": "tumor growth, single agent therapy versus saline control", "setting": "[4]", "result": "no better than the saline control treatments"}
    ]},
    {"molecule": "B3", "values": [
      {"measurement": "tumor growth, addition to Abraxane compared to the other arms", "setting": "[3]", "result": "similar, though blunted, results"},
      {"measurement": "tumor growth, addition to Abraxane compared to Abraxane alone", "setting": "[4]", "result": "fails to slow tumor growth beyond that achieved with Abraxane®"}
    ]}
  ]
}
